{"source": "patent US20140004122A1", "about": "“METHODS FOR TREATING OR PREVENTING CHOLESTEROL RELATED DISORDERS” (AMGEN INC., priority 2011, published 2014)", "molecules": {"B1": {"name": "21B12: human anti-PCSK9 monoclonal antibody; light/heavy variable region SEQ ID NO 23/49 (antibody, listed as Homo sapiens, V domains shown)", "VH": "QVQLVQSGAEVKKPGASVKVSCKASGYTLTSYGISWVRQAPGQGLEWMGWVSFYNGNTNYAQKLQGRGTMTTDPSTSTAYMELRSLRSDDTAVYYCARGYGMDVWGQGTTVTVSS", "VL": "QSALTQPASVSGSPGQSITISCTGTSSDVGGYNSVSWYQQHPGKAPKLMIYEVSNRPSGVSNRFSGSKSGNTASLTISGLQAEDEADYYCNSYTSTSMVFGGGTKLTVL"}}, "system": "subjects with hyperlipidemia on stable doses of a statin", "assay": "Phase 1b ascending multiple dose study on stable statin (Example 21)", "format": "in vivo", "procedure": "The study had seven cohorts. […] Cohort 6 was conducted in hypercholesterolemic subjects on high doses of a statin (atorvastatin 80 mg or rosuvastatin 40 mg).", "key": {"[1]": {"conditions": "cohort 6, high-dose statins, 140 mg SC Q2W 3 times"}}, "note": "Entries after “also recorded” stand apart in the source; their conditions may differ.", "data": [{"molecule": "B1", "values": [{"measurement": "maximum ApoB reduction during the study", "setting": "35 mg QW", "value": 48, "unit": "%"}, {"measurement": "maximum ApoB reduction during the study", "setting": "140 mg and 280 mg Q2W and 420 mg Q4W", "value": 59, "unit": "%"}, {"measurement": "plasma PCSK9", "setting": "at higher doses", "value": "undetectable"}, {"measurement": "suppression of PCSK9", "setting": "cohort 3, 140 mg Q2W SC 3 times, preliminary", "value": "Near-complete suppression of PCSK9"}, {"measurement": "maximum reduction in LDL-C versus placebo", "setting": "[1]", "value": 73, "unit": "%"}, {"measurement": "mean reduction in LDL-C vs placebo at the end of the dosing interval", "setting": "[1]", "value": 63, "unit": "%"}, {"measurement": "maximum LDL-C reduction versus placebo", "setting": "cohort 7 heFH", "value": 70, "unit": "%"}, {"measurement": "maximum reduction of ApoB versus placebo", "setting": "cohort 7 heFH", "value": 57, "unit": "%"}, {"measurement": "maximum reduction of non-HDL cholesterol versus placebo", "setting": "cohort 7 heFH", "value": 67, "unit": "%"}, {"measurement": "maximum total cholesterol reduction versus placebo", "setting": "cohort 7 heFH", "value": 47, "unit": "%"}, {"measurement": "serious AEs", "setting": "cohort 7 heFH", "value": "No serious AEs were reported"}, {"measurement": "mean reduction in LDL-C vs placebo at the end of the dosing interval", "setting": "cohort 7 heFH, 140 mg SC Q2W 3 times, week 6", "value": 65, "unit": "%"}, {"measurement": "mean reduction in ApoB levels vs placebo", "setting": "cohort 7 heFH, week 6", "value": "up to 47%"}, {"measurement": "mean reduction in lipoprotein a (Lp(a)) vs placebo", "setting": "cohort 7 heFH, week 6", "value": 50, "unit": "%"}, {"measurement": "mean reduction in non-HDL cholesterol vs placebo", "setting": "cohort 7 heFH, week 6", "value": 61, "unit": "%"}, {"measurement": "mean reduction in serum PCSK9 values vs placebo", "setting": "cohort 7 heFH, week 6", "value": 78, "unit": "%"}, {"measurement": "mean reduction in total cholesterol vs placebo", "setting": "cohort 7 heFH, week 6", "value": "up to 42%"}, {"measurement": "mean ApoB reduction vs placebo at the end of the dosing interval", "setting": "cohorts 1-5", "value": "up to 54%"}, {"measurement": "mean reduction of PCSK9 levels vs placebo at the end of the dosing interval", "setting": "cohorts 1-5", "value": "up to 94%"}, {"measurement": "mean LDL-C reduction vs placebo at maximal reduction", "setting": "cohorts 1-5, low to moderate doses of statins, 3 biweekly SC doses", "value": "up to 81%"}, {"measurement": "mean LDL-C reduction vs placebo at the end of the dosing interval", "setting": "cohorts 1-5, week 6 after 3 biweekly SC doses", "value": "≤ 75", "unit": "%"}, {"measurement": "mean LDL-C reduction at the end of the dosing interval", "setting": "cohorts 1-5, week 8 after 2 every 4 week SC doses", "value": "≤ 66", "unit": "%"}, {"measurement": "mean Lp(a) reduction vs placebo at the end of the dosing interval", "setting": "cohorts 1-6", "value": "up to 43%"}, {"measurement": "deaths or serious adverse events", "setting": "cohorts 1-6, final results", "value": "No deaths or serious adverse events (AEs) were reported; also recorded: no serious AEs"}, {"measurement": "neutralizing antibodies to 21B12", "setting": "cohorts 1-6, final results", "value": "No neutralizing antibodies to 21B12 were detected"}, {"measurement": "circulating PCSK9", "setting": "heFH subjects after treatment", "value": "undetectable"}, {"measurement": "LDL-C nadir observed within (after initial dosing)", "setting": "preliminary, cohorts 1-3, stable moderate doses of statins", "value": "≤ 2", "unit": "weeks"}, {"measurement": "decrease of circulating LDL-C vs placebo", "setting": "repeated SC doses over 6 weeks, low-to-moderate or high-dose statins", "value": "up to 81%"}]}]}
